Columns and labels:
recombinant human IL-6 [1] = biological target: T1, recombinant human IL-6 (human, UniProt P05231 30-212, limits assumed); assay: competition ELISA, rhIL-6 in solution against captured IL-6
T1 construct: also called rhIL6; human recombinant IL-6
Description: (§1) Briefly, plates were coated with 2 μg/ml of mBE4 capture antibody in coating buffer, 100 μl per well. The plates were incubated overnight. Next, the plates were washed 3 times and tapped dry. The plates were then blocked with 200 μl per well of Assay Diluent or 10% FBS in PBS and incubated for 2 hours. […] The reaction was left at RT for 3-4 hours. […] Next, the plates were washed 3 times and tapped dry. […] The plates were incubated for 1-2 hours. The plates were washed 3 times and tapped dry. […] The plates were incubated at RT for 2 hours. (Therefore, any unbound mAb at this point will be measured by ELISA). Plates were then washed 5 times and tapped dry. 100 μl of detection Ab goat anti-human IgG F(ab)′2-HRP (Jackson lab) was added at 1:20,000 dilutions or 1:40,000 dilutions (depending on lot) and the plates were incubated for 1-2 hours. The plates were washed 7 times and tapped dry. Next, the Developer Substrate (equal parts of each reagent in the kit) was pre-mixed and allowed to warm to room temperature before use. Then 100 μl of Developer was added to each well. The plates were allowed to develop for 15 minutes un-sealed in a drawer in the dark. Finally, developing was stopped by adding 100 μl of 2N H₂SO₄ to each well and plates were read as Endpoint at 450 nm-[…].

recombinant human IL-6 [2] = biological target: T1, recombinant human IL-6; assay: Biacore 2000, mAb captured on anti-human IgG CM5 chip, human IL-6 40-1.25 nM injected
Description: (§2) IC50 ELISA was performed as described above. Affinity analysis by Biacore was performed according to manufacturer protocols using HBS-EP buffer (Biacore AB).

recombinant human IL-6 [3] = biological target: T1, recombinant human IL-6; assay: competition ELISA, rhIL-6 in solution against captured IL-6 (Affinity (nM) by IC50 ELISA)
Description: as §1, §2

| IC50 (recombinant human IL-6 [1]) [nM] | Kd (recombinant human IL-6 [2]) [nM] | IC50 (recombinant human IL-6 [3]) [nM] | Binder |
| --- | --- | --- | --- |
| 5.5 | – | – | mAb 246 (antibody, V domains shown) VH: QVTLKESGPTLVKPTQTLTLTCTFSGFSLSTSGVAVGWIRQPPGKALEWLALIFWDDDKHYSPSLKSRLTITKDTSKNQVVLTMTNMDPVDTATYYCARSYDDYLYYALDYWGQGTLVTVSS VL: EIVLTQSPGTLSLSPGERATLSCRASQTIDSSYLAWYQQKPGQAPRLLVYGASSRATGIPDRFSDSGSGTDFTLTISRLEPEDFAVYYCQQYAKSPITFGQGTKLE |
| 11.5 | – | – | mAb 297 (antibody, V domains shown) VH: QVTLKESGPTLVKPTQTLTLTCTFSGFSLSTSGVAVGWIRQPPGKALEWLALIFWDDDKHYSPSLKSRLTITKDTSKNQVVLTMTNMDPVDTATYYCARSYDDYLYYALDYWGQGTLVTVSS VL: DIQMTQSPSSLSASVGDSVTITCRASQTISDFLNWYQQKPGKAPKLLIHASSNLQSGVPSRFSGSGSGTDFTLTISDLQPEDFATYSCQQTYSTLGTFGQGTRLE |
| 4 | – | – | mAb 247 (antibody, V domains shown) VH: QVTLKESGPTLVKPTQTLTLTCTFSGFSLSTSGVAVGWIRQPPGKALEWLALIFWDDDKHYSPSLKSRLTITKDTSKNQVVLTMTNMDPVDTATYYCARSYDDYLYYALDYWGQGTLVTVSS VL: DVVMTQSPSSVSASVGDRVTITCRASQDIDNFLAWYQQKPGKAPNLLIYKVSSLRSGVPSRFSGSRSGTDFTLTITSLQPEDFATYFCQQTRRFPLTFGPGTKLE |
| 12.9 | – | – | mAb 181 (antibody, V domains shown) VH: QVTLKESGPALVKPTQTLTLTCTFSGFSLTTSGMCVSWIRQPPGKALEWLALIYWDDDKRYNPSLRSRLTITKDTSKNQVVLTMTNMDPVDTATYYCARSYDDYLYYALDYWGQGTLVT VL: DIVMTQSPSSLSASVGDRVTITCRASQTISSYLNWYQQKPGKPPKLLIYAASSLESGVPSRFSGSGSGTEFTLTISSLQPEDLATYYCQQANSFPLTFGGGTKLE |
| 6.2 | – | – | mAb 265 (antibody, V domains shown) VH: QVTLKESGPALVKPTQTLTLTCTFSGFSLTTSGMCVSWIRQPPGKALEWLALIYWDDDKRYNPSLRSRLTITKDTSKNQVVLTMTNMDPVDTATYYCARSYDDYLYYALDYWGQGTLVT VL: DIQMTQSPSTLSASVGDRVTITCRASQSMSDYLNWYQQKPGKAPKLLIYSASGLQSGVPSRFSGSGSGTDFTLTIINLQPEDVAAYYCQQSFSFPLTFGPGTKLEIK |
| 2 | – | – | mAb 248 (antibody, V domains shown) VH: QVTLKESGPTLVKPTQTLTLTCTFSGFSLSTSGVAVGWIRQPPGKALEWLALIFWDDDKHYSPSLKSRLTITKDTSKNQVVLTMTNMDPVDTATYYCARSYDDYLYYALDYWGQGTLVTVSS VL: DIVMTQSPSSLSASVGDRVTITCRASQTISSYLNWYQQKPGKPPKLLIYAASSLESGVPSRFSGSGSGTEFTLTISSLQPEDLATYYCQQANSFPLTFGGGTKLE |
| 6.3 | – | – | mAb 182 (antibody, V domains shown) VH: QVTLKESGPALVKPTQTLTLTCTFSGFSLTTSGMCVSWIRQPPGKALEWLALIYWDDDKRYNPSLRSRLTITKDTSKNQVVLTMTNMDPVDTATYYCARSYDDYLYYALDYWGQGTLVT VL: DIQMTQSPSSLSASVGDRVTITCRASQSISTYLNWYQQKLGKAPKLLIYAASSLQSGVPSRFSGSGSGTDFTLTISSLQPEDLATYYCQQSYRPLTFGGGTKLEIK |
| 1.75 | – | – | mAb 183 (antibody, V domains shown) VH: QVTLKESGPALVKPTQTLTLTCTFSGFSLTTSGMCVSWIRQPPGKALEWLALIYWDDDKRYNPSLRSRLTITKDTSKNQVVLTMTNMDPVDTATYYCARSYDDYLYYALDYWGQGTLVT VL: DIQMTQSPSSLSASVGDSVTITCRASQSISIYLNWYQQKPGKAPDLLIYATSTLQSGVPSRFSGRGSGTHFTLTIDSLQPEDFATYYCQQTYRNLFTFGQGTKLE |
| 2.4 | – | – | mAb 184 (antibody, V domains shown) VH: QVTLKESGPALVKPTQTLTLTCTFSGFSLTTSGMCVSWIRQPPGKALEWLALIYWDDDKRYNPSLRSRLTITKDTSKNQVVLTMTNMDPVDTATYYCARSYDDYLYYALDYWGQGTLVT VL: DIQMTQSPSSLSASVGDSVTVTCRASQKMRTYLHWYQQKPGKAPKLLIYDVSFLQNGVPSRFSGRASGTEFTLTISDLQPEDFATYYCQQSYDTPLTFGQGTKLEIK |
| 2.2 | – | – | mAb 242 (antibody, V domains shown) VH: QVTLKESGPTLVKPTQTLTLTCSFSGFSLSTSGVGVGWVRQPPGKALEWLAFIFWDDDKYYSPSLESRLTITKDTSKNQVVLTMTNMDPVDTATYYCARSYDDYLYYALDYWGQGTLVT VL: DIVMTQSPSSLSASVGDRVTITCRASQTISSYLNWYQQKPGKPPKLLIYAASSLESGVPSRFSGSGSGTEFTLTISSLQPEDLATYYCQQANSFPLTFGGGTKLE |
| 0.6 | 0.3 | 0.056 | mAb 416 (antibody, V domains shown) VH: QVTLKESGPTLVKPTQTLTLTCSFSGFSLSTSGVGVGWVRQPPGKALEWLAFIFWDDDKYYSPSLESRLTITKDTSKNQVVLTMTNMDPVDTATYYCARSYDDYLYYALDYWGQGTLVT VL: DIQMTQSPSSLSAFVGDGVTMTCWASQSINDYLNWYHQRPGEAPELLVFAASNLQIGVPSRFRGSGSETYFTLTINSLQPEDSGTYFCQNGHSFPLTFGGGTKLEI |
| 0.047 | – | 0.047 | mAb 1337 (antibody, V domains shown) VH: QVTLKESGPTLVKPTQTLTLTCSFSGFSLSTSGVGVGWVRQPPGKALEWLAFIWWDDDKYYSPSLESRLTITKDTSKNQVVLTMTNMDPVDTATYYCARSADDYLYYSFDTWGQGTLVT VL: DIQMTQSPSSLSAFVGDGVTMTCWASQSINDYLNWYHQRPGEAPELLVFAASNLQIGVPSRFRGSGSETYFTLTINSLQPEDSGTYFCQHGHSFPLTFGGGTKLEI |
| 0.028 | 0.093 | 0.028 | mAb 1259 (antibody, V domains shown) VH: QVTLKESGPTLVKPTQTLTLTCSFSGFSLSTSGVGVGWVRQPPGKALEWLAFIWWDDDKYYSPSLESRLTITKDTSKNQVVLTMTNMDPVDTATYYCARSADDYLYYSFDTWGQGTLVT VL: DIQMTQSPSSLSAFVGDGVTMTCWASQSINDYLNWYHQRPGEAPELLVFAASNLQIGVPSRFRGSGSETYFTLTINSLQPEDSGTYFCQNGHSFPLTFGGGTKLEI |
| 0.031 | 0.072 | 0.031 | mAb 1338 (antibody, V domains shown) VH: QVTLKESGPTLVKPTQTLTLTCSFSGFSLSTSGVGVGWVRQPPGKALEWLAFIWWDDDKYYSPSLESRLTITKDTSKNQVVLTMTNMDPVDTATYYCARSADDYLYYSFDTWGQGTLVT VL: DIQMTQSPSSLSAFVGDGVTMTCWASQSINDYLNWYHQRPGEAPELLVFAASNLQIGVPSRFRGSGSETYFTLTINSLQPEDSGTYFCQSGHSFPLTFGGGTKLEI |
| 0.028 | – | 0.028 | mAb 1340 (antibody, V domains shown) VH: QVTLKESGPTLVKPTQTLTLTCSFSGFSLSTSGVGVGWVRQPPGKALEWLAFIWWDDDKYYSPSLESRLTITKDTSKNQVVLTMTNMDPVDTATYYCARSADDYLYYSFDTWGQGTLVT VL: DIQMTQSPSSLSAFVGDGVTMTCWASQSINDYLNWYHQRPGEAPELLVFAASNLQIGVPSRFRGSGSETYFTLTINSLQPEDSGTYFCQNGWSFPLTFGGGTKLEI |

Source: patent publication US20080075726A1 (VACCINEX, published 2008)
